# How the values were obtained:
# [1] = biological target: Bone morphogenetic protein-2 (BMP-2) (Homo sapiens) (UniProt P12643); experiment: cell-based or functional assay
# UniProt P12643, sequence (P12643 283-396, form in doubt): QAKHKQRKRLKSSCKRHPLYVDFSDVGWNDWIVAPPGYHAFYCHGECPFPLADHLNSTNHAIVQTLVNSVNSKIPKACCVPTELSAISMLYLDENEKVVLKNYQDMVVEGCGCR
"inhibition of BMP-2-induced ALP activity in C2C12 cells, noggin at 300 ng/mL, in the presence of heparin or HS5 (3 µg/mL) [1]","inhibition of BMP-2-induced ALP activity in C2C12 cells, noggin at 300 ng/mL, no GAG [1]",Substance,"FXa activity (cleavage of chromogenic substrate S-2222), AT pre-incubated with HS5 (Antithrombin (AT))","FXa activity (cleavage of chromogenic substrate S-2222), AT pre-incubated with heparin (Antithrombin (AT))","FXa activity (cleavage of chromogenic substrate S-2222), AT pre-incubated with pHS or bHS (Antithrombin (AT))"
–,–,Factor Xa (FXa),HS5 did not activate AT at any doses tested,heparin (a known anticoagulant) dose dependently activated AT resulting in the inhibition of FXa,"In the presence of pHS or bHS, AT significantly reduced FXa activity, but only at 3 µg/mL"
20%,70%,noggin (ligand),–,–,–
